Data taken from US20170174733A1 (Genentech, published 2017).
Like-named read-outs stand apart in the source and are kept apart here.

What was measured:
[1] = molecular target: LRP6 on HEK293S cells (human, UniProt O75581 20-1613); test: cell-based or functional assay
[2] = molecular target: T1, LRP6 E1E2 with a C-terminal Avi-tag and His6-tag (human, UniProt O75581 20-630, biotinylated (Avi-tag) where loaded on streptavidin tips; unlabeled where in solution); test: biolayer interferometry (OctetRED384), fitting view of five traces, LRP6-E1E2
T1 construct: domain: E1E2; also called LRP6 receptor fragment E1E2; biotinylated LRP6-E1E2; not shown: C-terminal Avi-tag and His6-tag
T1 sequence: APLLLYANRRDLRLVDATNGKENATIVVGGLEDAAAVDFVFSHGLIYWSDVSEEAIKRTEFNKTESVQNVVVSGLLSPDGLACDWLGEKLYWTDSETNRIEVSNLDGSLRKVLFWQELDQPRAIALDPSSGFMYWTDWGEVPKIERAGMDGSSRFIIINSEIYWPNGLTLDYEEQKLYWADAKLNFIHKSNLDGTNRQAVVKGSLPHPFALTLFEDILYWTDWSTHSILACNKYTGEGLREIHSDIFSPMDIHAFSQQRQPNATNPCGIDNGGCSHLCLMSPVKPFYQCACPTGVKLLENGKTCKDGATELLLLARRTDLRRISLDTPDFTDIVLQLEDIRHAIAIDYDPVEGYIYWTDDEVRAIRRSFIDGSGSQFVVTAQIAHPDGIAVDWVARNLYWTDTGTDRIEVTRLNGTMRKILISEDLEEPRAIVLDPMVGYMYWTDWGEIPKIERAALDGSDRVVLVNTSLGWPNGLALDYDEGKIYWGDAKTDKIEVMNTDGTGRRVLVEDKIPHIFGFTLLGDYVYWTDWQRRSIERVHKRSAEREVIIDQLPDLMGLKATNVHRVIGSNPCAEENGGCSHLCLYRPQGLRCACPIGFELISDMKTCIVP

[3] = molecular target: T1, LRP6 E1E2 with a C-terminal Avi-tag and …; test: BLI (OctetRED384), monomeric variant
[4] = molecular target: T2, biotinylated VEGF165 (UniProt P15692 27-191); test: competition binding ELISA: blocks biotinylated VEGF165 binding to coated VEGFR1-Fc
T2 construct: range 1-165; also called VEGF1-165
T2 sequence (P15692 other isoform, or with tags, fused parts or gaps limits assumed): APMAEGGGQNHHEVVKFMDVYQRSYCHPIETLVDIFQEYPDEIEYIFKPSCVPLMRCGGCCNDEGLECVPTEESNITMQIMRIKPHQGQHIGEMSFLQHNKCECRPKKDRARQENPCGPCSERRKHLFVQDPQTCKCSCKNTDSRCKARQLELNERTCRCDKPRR

[5] = molecular target: T3, human VEGF (human, UniProt P15692 27-191); test: cell-based or functional assay
T3 sequence (P15692 other isoform, or with tags, fused parts or gaps limits assumed): as above

[6] = molecular target: T3, human VEGF; test: cell-based or functional assay; remark: listed apart in the source
[7] = molecular target: T2, biotinylated VEGF165; test: competition binding ELISA: biotinylated VEGF165 premixed with the binder, then on coated VEGFR1-Fc (blocked partner), OD 450 nm
[8] = molecular target: T3, human VEGF; test: cell-based or functional assay; remark: listed apart in the source
[9] = molecular target: T1, LRP6 E1E2 with a C-terminal Avi-tag and …; test: BLI on small-scale ExiProgen protein with C-terminal Avi-tag
[10] = molecular target: T4, VEGF109 (UniProt P15692 214-315, biotinylated where loaded on streptavidin tips); test: BLI (OctetRED384): biotinylated VEGF109 on tips, monomeric variant in solution
T4 construct: range 8-109; also called VEGF8-109; biotinylated VEGF109
T4 sequence: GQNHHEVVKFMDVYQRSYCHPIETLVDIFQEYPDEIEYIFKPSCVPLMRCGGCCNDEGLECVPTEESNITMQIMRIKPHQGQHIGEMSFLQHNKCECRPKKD

[11] = molecular target: T4, VEGF109; test: BLI (OctetRED384): biotinylated VEGF109 on tips
[12] = molecular target: T4, VEGF109
[13] = molecular target: T3, human VEGF; test: cell-based or functional assay; remark: listed apart in the source
[14] = molecular target: T4, VEGF109; test: BLI (OctetRED384): biotinylated VEGF109 on SA sensor tips

B1: chagasin LRP6 variant H2 (designed binder)
chain: MSHKVTKAHNGATLTVAVGELVEIQLPSNPQTGFAWYFEGGTKESPNESMFTVENKYFPSNKVKGVPGFGAGGTEHFHVTVKAAGTHAVNLTYMGPWTGASQEPERFTVYLKAN
notes: also called clone H2
Which results are given for B1?
IC50, inhibition of Wnt1 signaling (luciferase reporter, HEK293S cells transfected by WNT1) [1]: 0.031 µM; Kd [2]: 0.00039 µM; Kd [3]: 0.0004 µM

B2: GST-fused chagasin VEGF variant 4-66-F6 (designed binder)
chain: MSHKVTKAHNGATLTVAVGELVEIQLPSNYFYDGFAWYFEGGTKESPNESMFTVENKYFPNDPGSRLSGAGGTEHFHVTVKAAGTHAVNLTYMAPWLGPSRVLERFTVYLKAN
notes: also called GST-Variant 4; variant 4 as a GST-fusion protein; not shown: N-terminal His6-GST-tag and TEV cleavage site (pET52b backbone)
With B2 as the binder, how does the IC50 [4] read?
The IC50 was 0.013 µM.

And the “IC50, inhibition of VEGF-dependent KDR phosphorylation on KDR-expressing CHO cells” value [5]?
The value was 0.072 µM.

What about the “Inhibitory activity (IC50, nM) against VEGF in cell-based assays” value [6] of the same binder?
Its value is 73 nM.

And the IC50 [7]?
Its IC50 is 0.014 µM.

What about the “Inhibitory activity (IC50, nM) against VEGF in cell-based assays” value [8] of the same binder?
The value was 28 nM.

B3: chagasin LRP6 variant S15 (designed binder)
chain: MSHKVTKAHNGATLTVAVGELVEIQLPSNADGFAWYFEGGTKESPNESMFTVENKYFPSNSTKRGAGGTEHFHVTVKAAGTHAVNLTYMRREKGSTLVVERFTVYLKAN
modifications: biotinylated at the Avi-tag (BirA)
notes: not shown: C-terminal His6-tag and Avi-tag (ExiProgen small-scale expression)
Does B3 bind [9]?
Result: binds

B4: monomeric chagasin VEGF variant L4X6-7 (designed binder)
chain: MSHKVTKAHNGATLTVAVGELVEIQLPSNYFREGFAWYFEGGTKESPNESMFTVENKYFPHVQWGWGAGGTEHFHVTVKAAGTHAVNLTYMAPWVGPSRELERFTVYLKAN
For B4, which Kd [10] is on record?
Its Kd is 0.15 µM.

And the “fold improvement of IC50 over the parental chagasin variant 4” value [5]?
Its value is 13 fold.

And the “fold improvement of Kd over the parental variant 4” value [11]?
Its value is 2.5 fold.

And the Kd [12]?
The Kd was 0.16 µM.

What about the “Inhibitory Activity (IC50, nM) against hVEGF in cell-based assays” value [13] of the same binder?
Its value is 65 nM.

B5: chagasin VEGF variant 66 (designed binder)
chain: MSHKVTKAHNGATLTVAVGELVEIQLPSNYYYDGFAWYFEGGTKESPNESMFTVENKYFPHYYNLGGRYTGAGGTEHFHVTVKAAGTHAVNLTYMGPWLGPSRVLERFTVYLKAN
notes: also called clone 66; not shown: C-terminal His6-tag and Avi-tag of the ExiProgen small-scale expression
Does B5 bind [14]?
Result: binds
